Reference: US20250084155A1 (University of Texas, published 2025)
Positions count from the first letter of the chain named.

B1: h77A-1.31 (antibody, V domains shown)
VH: QIQLVQSGAEVKKPGASVKVSCKASGYTFTNYGMNWVRQAPGQGLEWMGWINTYTGEPTYADDFKGRFTFTTDTSTSTAYMELRSLRSDDTAVYFCARYDHPMDYWGQGTLVTVSS
VL: EIVLTQSPDSLAVSLGERATINCKSSQSLLNSGTRKNYLAWYQQKAGQSPKLLIYWTSTRESGVPDRFSGSGSGTDFTLTIDRLQAEDVAVYYCKQSYTLYTFGGGTKVEIK
notes: captured by anti-human Fc
B2: h77A-1.47 (antibody, V domains shown)
VH: B1 VH with A9T, P102L
VL: B1 VL with R83S, A86T
notes: captured by anti-human Fc
B3: h77A-1.52 (antibody, V domains shown)
VH: B1 VH with A9V, T28I, T59R, P102R
VL: B1 VL with R83S
notes: captured by anti-human Fc
B4: h77A-1.35 (antibody, V domains shown)
VH: B1 VH with A9T, P102H
VL: B1 VL with A12T, R83S
notes: captured by anti-human Fc
B5: h77A-1.38 (antibody, V domains shown)
VH: B1 VH with A9T, S77R, P102L
VL: B1 VL with R83S
notes: captured by anti-human Fc
B6: h77A-1.39 (antibody, V domains shown)
VH: B1 VH with A61S, S77R, P102A
VL: B1 VL with R83S, T99N
notes: captured by anti-human Fc
B7: h77A-1.45 (antibody, V domains shown)
VH: B1 VH with A9V, A79V, P102A
VL: B1 VL with R83S, T99S
notes: captured by anti-human Fc
B8: h77A-1.48 (antibody, V domains shown)
VH: B1 VH with E82D, P102Y
VL: B1 VL with A46P, R83S
notes: captured by anti-human Fc
B9: h77A-1.37 (antibody, V domains shown)
VH: B1 VH with N31K, P58S, P102V
VL: B1 VL with R83S
notes: captured by anti-human Fc
B10: h77A-1.33 (antibody, V domains shown)
VH: B1 VH with N31K, P102N
VL: B1 VL with R83S
notes: captured by anti-human Fc
B11: h77A-1.42 (antibody, V domains shown)
VH: B1 VH with Q3H, A97T, P102R
VL: B1 VL with R83S
notes: captured by anti-human Fc
B12: h77A-1.36 (antibody, V domains shown)
VH: B1 VH with S77T, P102H
VL: B1 VL with L30F, R83S
notes: captured by anti-human Fc
B13: h77A-1.50 (antibody, V domains shown)
VH: B1 VH with Q3H, A9V, A61T, P102A
VL: B1 VL with R83S, V91I
notes: captured by anti-human Fc
B14: h77A-1.41 (antibody, V domains shown)
VH: B1 VH with S77T, P102V
VL: B1 VL with A46P, R83S
notes: captured by anti-human Fc
B15: h77A-1.53 (antibody, V domains shown)
VH: B1 VH with T59K, A61T, S77R, P102A
VL: B1 VL with A12S, R83S
notes: captured by anti-human Fc
B16: h77A-1.40 (antibody, V domains shown)
VH: B1 VH with P102Y
VL: B1 VL with A12T, R83S, T99N
notes: captured by anti-human Fc
B17: h77A-1.43 (antibody, V domains shown)
VH: B1 VH with Q3H, A79V, P102A
VL: B1 VL with L53I, R83S
notes: captured by anti-human Fc

Target: T1, HSP70 (human HSP70; the antigen of the binning, humanization and variant binding assays) (human, UniProt P0DMV8 1-641, limits assumed)
T1 construct: also called hu HSP70
T1 sequence (P0DMV8 whole entry, change not shown): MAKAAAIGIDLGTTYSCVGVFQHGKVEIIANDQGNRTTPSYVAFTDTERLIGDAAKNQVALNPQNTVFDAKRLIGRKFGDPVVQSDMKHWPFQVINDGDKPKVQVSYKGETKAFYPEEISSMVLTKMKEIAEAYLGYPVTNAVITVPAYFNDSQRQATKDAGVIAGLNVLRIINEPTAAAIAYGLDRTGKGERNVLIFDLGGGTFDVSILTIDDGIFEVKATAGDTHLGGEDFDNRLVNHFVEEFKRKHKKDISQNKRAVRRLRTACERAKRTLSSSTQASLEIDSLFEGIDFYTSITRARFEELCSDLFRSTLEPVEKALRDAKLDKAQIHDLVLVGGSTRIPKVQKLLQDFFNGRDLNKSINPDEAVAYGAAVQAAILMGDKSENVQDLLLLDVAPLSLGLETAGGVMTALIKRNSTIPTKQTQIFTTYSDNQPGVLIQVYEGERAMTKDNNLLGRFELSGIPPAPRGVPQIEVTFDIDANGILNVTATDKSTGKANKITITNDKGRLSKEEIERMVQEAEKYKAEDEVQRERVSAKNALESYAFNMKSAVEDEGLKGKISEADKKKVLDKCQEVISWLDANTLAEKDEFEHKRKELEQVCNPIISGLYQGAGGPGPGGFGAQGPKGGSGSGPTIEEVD
Assay: BLI, anti-human Fc capture, antigen 100 nM
Description: Binding assays were performed as follows. Antibody variants were immobilized using anti-human Fc onto the surface of a series of biosensors at […]. Antigen, at 100 nM, was passed over the surface to generate a binding response. Binding data for the antibody:antigen interactions were collected at 25° C. on the biosensors. In Table 14, X=610 represents captured antigen value (nM) at the beginning of the dissociation phase (measured at 610 seconds after the biosensor was initially contacted with antigen) and X=1495 represents captured antigen value (nM) at the end of the dissociation phase (measured at 1495 seconds after the biosensor was initially contacted with antigen). In Table 14, antibodies with an X=610 value greater than 0.2 and a % dissociation less than 10% are shown in bold.

| Binder | % Diss [%] |
| --- | --- |
| B1 | -3.52 |
| B2 | 13.6 |
| B3 | -115 |
| B4 | 4.38 |
| B5 | 10.5 |
| B6 | 21 |
| B7 | 33.9 |
| B8 | 34.5 |
| B9 | 22.8 |
| B10 | 20.6 |
| B11 | 33.5 |
| B12 | 6.96 |
| B13 | 11.2 |
| B14 | 34.2 |
| B15 | 11.1 |
| B16 | 11.9 |
| B17 | 21.1 |
